According to PMC2719355 (The Journal of Biological Chemistry, 2009):

Biological target: the molecule itself
Experiment: mass spectrometry

B1: recombinant full-length human butyrylcholinesterase, usual form (rBChE-U) (enzyme)
chain: EDDIIIATKNGKVRGMNLTVFGGTVTAFLGIPYAQPPLGRLRFKKPQSLTKWSDIWNATKYANSCCQNIDQSFPGFHGSEMWNPNTDLSEDCLYLNVWIPAPKPKNATVLIWIYGGGFQTGTSSLHVYDGKFLARVERVIVVSMNYRVGALGFLALPGNPEAPGNMGLFDQQLALQWVQKNIAAFGGNPKSVTLFGESAGAASVSLHLLSPGSHSLFTRAILQSGSFNAPWAVTSLYEARNRTLNLAKLTGCSRENETEIIKCLRNKDPQEILLNEAFVVPYGTPLSVNFGPTVDGDFLTDMPDILLELGQFKKTQILVGVNKDEGTAFLVYGAPGFSKDNNSIITRKEFQEGLKIFFPGVSEFGKESILFHYTDWVDDQRPENYREALGDVVGDYNFICPALEFTKKFSEWGNNAFFYYFEHRSSKLPWPEWMGVMHGYEIEFVFGLPLERRDNYTKAEEILSRSIVKRWANFAKYGNPNETQNNSTSWPVFKSTEQKYLTLNTESTRIMTKLRAQQCRFWTSFFPKVLEMTGNIDEAEWEWKAGFHRWNNYMMDWKNQFNDYTSKKESCVGL
stoichiometry N: 2
